Data: patent US20220324953A1 (JIANGSU HENGRUI MEDICINE, published 2022)
Where a chain is given by its changes, count along the chain named. Blank lines part the entries; values can stand above or below the binder they belong to.

Assays:
[1] = target: T1, Cynomolgus CTGF-Fc (fusion protein of cynomolgus CTGF coding region with Fc) (cynomolgus); assay: ELISA, cyno-CTGF-Fc captured by anti-mFc
T1 construct: also called cyno-CTGF-mFc protein; cyno-CTGF protein with Fc tag
Method: The binding activity of anti-monkey CTGF antibody to monkey CTGF protein was tested by ELISA assay. A 96-well microtiter plate was directly coated with anti-mFc protein, and then the cyno-CTGF protein with Fc tag was bound to the plate, and then the antibody was added. The signal strength upon the addition of the antibody was used to determine the binding activity of the antibody to cyno-CTGF. The specific experimental procedures were as follows:
The anti-mFc Protein (Sigma, Cat No. M4280) was diluted with PBS, pH 7.4 (Shanghai Yuanpei, Cat No. B320) buffer to a concentration of 2 μg/ml, which was added into the 96-well microtiter plate (Corning, Cat No. CLS3590-100EA) at 50 μl/well, and incubated in an incubator at 37° C. for 2 hours. The liquid was removed, 250 μl/well blocking solution (5% skim milk (BD skim milk, Cat No.232100) diluted in PBS) was added, and incubated in an incubator at 37° C. for 3 hours or at 4° C. overnight (16-18 hours) for blocking. After the blocking was finished, the blocking solution was removed, the plate was washed for 3 times with PBST buffer (PBS containing 0.1% Tween-20, pH 7.4), 50 μl of 1 μg/ml cyno-CTGF-mFc protein was added into each well, incubated in an incubator at 37° C. for 1 hour, and then the plate was washed for 3 times with PBST buffer (PBS containing 0.1% Tween-20, pH 7.4). 50 μl/well of various concentrations of each of the test antibodies (antibodies purified from hybridoma or humanized antibodies) diluted with sample dilution solution were added, and incubated in an incubator at 37° C. for 1 hours. After the incubation was finished, the plate was washed for 3 times with PBST, 50 μl/well of HRP-labeled goat anti-mouse secondary antibody (Jackson Immuno Research, Cat No. 115-035-003) or goat anti-human secondary antibody (Jackson Immuno Research, Cat No. 109-035-003) diluted with sample dilution solution was added, and incubated at 37° C. for 1 hour. The plate was washed for 5 times with PBST, 50 μl/well of TMB chromogenic substrate (KPL, Cat No. 52-00-03) was added, incubated at room temperature for 5-10 min, and 50 μl/well of 1 M H₂SO₄ was added to stop the reaction. The absorbance value was read by a microplate reader (Molecular Devices, VERSA max) at a wavelength of 450 nm, and the data was analyzed with GraphPad Prism 5. The binding of CTGF antibody to cyno CTGF protein was calculated as EC50 value.

[2] = target: T2, human CTGF protein (R&D, Cat No. 9190-CC) (human, UniProt P29279 27-349); assay: ELISA, plate coated with CTGF (R&D 9190-CC)
T2 construct: Bought protein; also called CTGF recombinant protein; CTGF (R&D)
T2 sequence: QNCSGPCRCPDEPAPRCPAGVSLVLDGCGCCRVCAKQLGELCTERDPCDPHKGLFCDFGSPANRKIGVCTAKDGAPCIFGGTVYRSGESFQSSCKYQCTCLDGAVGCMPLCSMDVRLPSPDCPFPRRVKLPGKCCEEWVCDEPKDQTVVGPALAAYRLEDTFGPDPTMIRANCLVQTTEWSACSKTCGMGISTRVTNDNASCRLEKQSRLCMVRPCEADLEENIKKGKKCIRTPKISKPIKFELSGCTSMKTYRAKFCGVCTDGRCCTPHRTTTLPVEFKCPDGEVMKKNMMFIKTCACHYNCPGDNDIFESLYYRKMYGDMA
Method: The binding activity of anti-human CTGF antibody to human CTGF protein was tested by ELISA assay and Biacore. A 96-well microtiter plate was directly coated with the CTGF recombinant protein. The signal strength upon the addition of the antibody was used to determine the binding activity of the antibody to CTGF. The specific experimental procedures were as follows:
The CTGF protein (R&D, Cat No. 9190-CC) was diluted with PBS, pH 7.4 (Shanghai Yuanpei, Cat No. B320) buffer to a concentration of 0.2 μg/ml, 50 μl/well of which was added into the 96-well microtiter plate (Corning, Cat No. CLS3590-100EA), and incubated in an incubator at 37° C. for 2 hours or at 4° C. overnight (16-18 hours). The liquid was removed, 250 μl/ well blocking solution (5% skim milk (BD skim milk, Cat No.232100) diluted in PBS) was added, and incubated in an incubator at 37° C. for 3 hours or at 4° C. overnight (16-18 hours) for blocking. After the blocking was finished, the blocking solution was removed, the plate was washed for 5 times with PBST buffer (PBS containing 0.1% Tween-20, pH 7.4), 50 μl/well of various concentrations of each of the test antibodies (antibodies purified from hybridoma or humanized antibodies) diluted with sample dilution solution were added, and incubated in an incubator at 37° C. for 1 hours. After the incubation was finished, the plate was washed for 3 times with PBST, 50 μl/well of HRP-labeled goat anti-mouse secondary antibody (Jackson Immuno Research, Cat No. 115-035-003) or goat anti-human secondary antibody (Jackson Immuno Research, Cat No. 109-035-003) diluted with sample dilution solution was added, and incubated at 37° C. for 1 hour. The plate was washed for 3 times with PBST, 50 μl/well of TMB chromogenic substrate (KPL, Cat No. 52-00-03) was added, incubated at room temperature for 5-10min, and 50 μl/well of 1 M H₂SO₄ was added to stop the reaction. The absorbance value was read by a microplate reader (Molecular Devices, VERSA max) at a wavelength of 450 nm, and the data was analyzed with GraphPad Prism 5. The binding of CTGF antibody to human CTGF protein was calculated as EC50 value.

T1 sequence (chain, as listed by the source limits assumed): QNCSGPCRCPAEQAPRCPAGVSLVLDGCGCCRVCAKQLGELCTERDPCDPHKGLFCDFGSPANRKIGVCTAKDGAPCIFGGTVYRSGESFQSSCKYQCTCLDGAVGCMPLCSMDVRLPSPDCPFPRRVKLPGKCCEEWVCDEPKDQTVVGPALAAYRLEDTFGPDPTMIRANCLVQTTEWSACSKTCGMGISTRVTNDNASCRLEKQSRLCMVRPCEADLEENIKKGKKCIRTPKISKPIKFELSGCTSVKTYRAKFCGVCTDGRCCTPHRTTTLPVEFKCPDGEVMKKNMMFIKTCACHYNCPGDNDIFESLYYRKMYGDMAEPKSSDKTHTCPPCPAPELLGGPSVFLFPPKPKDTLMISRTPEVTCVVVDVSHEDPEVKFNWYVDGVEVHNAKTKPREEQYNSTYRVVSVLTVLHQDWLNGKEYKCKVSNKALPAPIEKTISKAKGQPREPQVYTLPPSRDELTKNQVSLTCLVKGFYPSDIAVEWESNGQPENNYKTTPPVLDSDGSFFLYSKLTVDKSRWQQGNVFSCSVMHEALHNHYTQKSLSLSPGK

B2: Hu147-22wk (antibody, human IgG1, kappa, V domains shown)
VH: EVQLVESGGGLVQPGGSLRLSCAASGFTFNTYAMNWVRQAPGKGLEWVARIRTKSNNYATYYADSVKDRFTISRDDSKNSLYLQMNSLKTEDTAVYYCVETGFAYWDQGTLVTVSS
VL: EIVLTQSPATLSLSPGERATLSCSASSSVSYMHWFQQKPGQSPKLLIYSTSNLASGIPARFSGSGSGTDYTLTISSLEPEDFAVYYCQQRSSYPLTFGQGTKLEIKR
EC50 [1]: 0.073 nM
EC50 [2]: 0.056 nM

B4: Hu147-14wk (antibody, human IgG1, kappa, V domains shown)
VH: B2 VH with N30S, A49G
VL: DIQMTQSPSSLSASVGDRVTITCSASSSVSYMHWFQQKPGKSPKLLIYSTSNLASGVPSRFSGSGSGTDYTLTISSLQPEDFATYYCQQRSSYPLTFGQGTKLEIKR
EC50 [1]: 0.077 nM
EC50 [2]: 0.073 nM

B6: Hu147-24wk (antibody, human IgG1, kappa, V domains shown)
VH: B2 VH
VL: B4 VL
EC50 [1]: 0.08 nM
EC50 [2]: 0.048 nM

B7: Hu147-11wk (antibody, human IgG1, kappa, V domains shown)
VH: B2 VH with N30S, A49G
VL: B2 VL with K44R
EC50 [1]: 0.052 nM
EC50 [2]: 0.045 nM

B8: Hu147-34wk (antibody, human IgG1, kappa, V domains shown)
VH: B2 VH with T28S, K78E, N79S
VL: B4 VL
EC50 [1]: 0.144 nM
EC50 [2]: 0.134 nM

B9: Hu147-21wk (antibody, human IgG1, kappa, V domains shown)
VH: B2 VH
VL: B2 VL with K44R
EC50 [1]: 0.053 nM
EC50 [2]: 0.067 nM

B11: Hu147-33wk (antibody, human IgG1, kappa, V domains shown)
VH: B2 VH with T28S, K78E, N79S
VL: B2 VL with L46W, I57V
EC50 [1]: 0.044 nM
EC50 [2]: 0.054 nM

B16: Hu164-69wl (antibody, human IgG1, lambda, V domains shown)
VH: EVTLKESGPVLVKPTETLTLTCTVSGFSLSTFGVHWIRQPPGKGLEWLGVIWRRGGTDYNAAFMSRLTISKDTSKSQVVFTMTNMDPVDTATYYCARDGGFDYWGQGTTVTVSS
VL: ESVVTQPPSVSGAPGQRVTISCRSSIGAVTTSNYANWVQQLPGTAFKGLIGGTSNRAPGVPDRFSGSKSGTSASLAITGLQAEDEADYYCALWYSTHYVFGGGTKLTVLG
EC50 [1]: 0.032 nM
EC50 [2]: 0.063 nM

B18: Hu164-77wl (antibody, human IgG1, lambda, V domains shown)
VH: EVQLQESGPGLVKPSQTLSLTCTVSGFSISTFGVHWIRQHPGKGLEWIGVIWRRGGTDYNAAFMSRVTISKDTSKNQVSLKLSSVTAADTAVYYCARDGGFDYWGQGTTVTVSS
VL: ETVVTQEPSLTVSPGGTVTLTCRSSIGAVTTSNYANWVQQKPGQAFRGLIGGTSNRAPWTPARFSGSLLGGKAALTLSGVQPEDEAEYYCALWYSTHYVFGGGTKLTVLG
EC50 [1]: 0.038 nM
EC50 [2]: 0.055 nM

B19: Hu164-87wl (antibody, human IgG1, lambda, V domains shown)
VH: B18 VH with I48L, V67L, L80F
VL: B18 VL
EC50 [1]: 0.034 nM
EC50 [2]: 0.055 nM

The remaining binders from weak to strong by EC50 [1], led by results:

EC50 [1]: 0.086 nM
EC50 [2]: 0.067 nM
B17: positive control CTGF antibody mAb1 (antibody, V domains shown)
VH: EGQLVQSGGGLVHPGGSLRLSCAGSGFTFSSYGMHWVRQAPGKGLEWVSGIGTGGGTYSTDSVKGRFTISRDNAKNSLYLQMNSLRAEDMAVYYCARGDYYGSGSFFDCWGQGTLVTVSS
VL: DIQMTQSPSSLSASVGDRVTITCRASQGISSWLAWYQQKPEKAPKSLIYAASSLQSGVPSRFSGSGSGTDFTLTISSLQPEDFATYYCQQYNSYPPTFGQGTKLEIKR
notes: Positive control, from CN1829740B; also called pamrevlumab; FG-3019

EC50 [1]: 0.079 nM
EC50 [2]: 0.063 nM
B14: Hu147-32wk (antibody, human IgG1, kappa, V domains shown)
VH: B2 VH with T28S, K78E, N79S
VL: B2 VL

EC50 [1]: 0.07 nM
EC50 [2]: 0.056 nM
B5: Hu147-31wk (antibody, human IgG1, kappa, V domains shown)
VH: B2 VH with T28S, K78E, N79S
VL: B2 VL with K44R

EC50 [1]: 0.063 nM
EC50 [2]: 0.058 nM
B12: Hu147-23wk (antibody, human IgG1, kappa, V domains shown)
VH: B2 VH
VL: B2 VL with L46W, I57V

EC50 [1]: 0.062 nM
EC50 [2]: 0.046 nM
B3: Hu147-12wk (antibody, human IgG1, kappa, V domains shown)
VH: B2 VH with N30S, A49G
VL: B2 VL

EC50 [1]: 0.053 nM
EC50 [2]: 0.034 nM
B10: Hu147-15wk (antibody, human IgG1, kappa, V domains shown)
VH: B2 VH with N30S, A49G
VL: B4 VL with M4L, L46W

EC50 [1]: 0.043 nM
EC50 [2]: 0.043 nM
B13: Hu147-13wk (antibody, human IgG1, kappa, V domains shown)
VH: B2 VH with N30S, A49G
VL: B2 VL with L46W, I57V

EC50 [1]: 0.036 nM
EC50 [2]: 0.069 nM
B15: Hu164-68wl (antibody, human IgG1, lambda, V domains shown)
VH: B16 VH
VL: ETVVTQEPSFSVSPGGTVTLTCRSSIGAVTTSNYANWVQQTPGQAFRGLIGGTSNRAPGVPDRFSGSILGNKAALTITGAQADDESDYYCALWYSTHYVFGGGTKLTVLG

EC50 [1]: 0.028 nM
EC50 [2]: 0.044 nM
B1: Hu164-67wl (antibody, human IgG1, lambda)
heavy: not shown
light: ETVVTQEPSLTVSPGGTVTLTCRSSIGAVTTSNYANWVQQKPGQAFRGLIGGTSNRAPWTPARFSGSLLGGKAALTLSGVQPEDEAEYYCALWYSTHYVFGGGTKLTVLGQPKANPTVTLFPPSSEELQANKATLVCLISDFYPGAVTVAWKADGSPVKAGVETTKPSKQSNNKYAASSYLSLTPEQWKSHRSYSCQVTHEGSTVEKTVAPTEC
